From article PMC11726454

Target: TLR4 human recombinant protein (HY-P73586, MCE) (human) (UniProt O00206)
Assay: SPR

Sequence of UniProt O00206 (O00206 24-631, one chain of several): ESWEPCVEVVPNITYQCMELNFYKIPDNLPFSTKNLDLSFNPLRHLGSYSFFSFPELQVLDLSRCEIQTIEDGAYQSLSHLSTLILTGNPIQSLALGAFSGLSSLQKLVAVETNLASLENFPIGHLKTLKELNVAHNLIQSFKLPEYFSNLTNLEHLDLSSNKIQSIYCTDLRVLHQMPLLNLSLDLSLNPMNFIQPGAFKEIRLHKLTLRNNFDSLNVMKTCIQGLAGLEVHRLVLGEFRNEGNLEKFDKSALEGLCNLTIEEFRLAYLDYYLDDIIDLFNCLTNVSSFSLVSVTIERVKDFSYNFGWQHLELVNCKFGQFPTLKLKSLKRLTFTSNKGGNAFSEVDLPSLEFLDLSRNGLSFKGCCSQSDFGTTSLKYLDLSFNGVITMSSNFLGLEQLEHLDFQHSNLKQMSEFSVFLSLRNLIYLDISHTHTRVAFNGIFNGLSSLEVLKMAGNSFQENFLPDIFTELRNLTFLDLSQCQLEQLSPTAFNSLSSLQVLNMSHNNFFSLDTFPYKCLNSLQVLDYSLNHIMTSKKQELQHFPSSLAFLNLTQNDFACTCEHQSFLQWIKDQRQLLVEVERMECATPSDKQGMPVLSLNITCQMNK

## PBP1B without the GST tag, non-transmembrane domain (domain or fragment)
  Kd: 0.269 nM
